According to the supplement of paper PMC11136658:

Tested on: peptide library, one residue held at a place counted from the Y acceptor
Assay: relative phosphorylation of the sub-library (ratio to the mean residue at this position); higher = residue favoured
Outline: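 Purified recombinant kinases were incubated for 90 min in 384-well plates with biotinylated Tyr-centred peptide library mixtures, each fixing one residue at one position from −5 to +5, plus 50 μM ATP with γ-32P-ATP. Peptides were captured on streptavidin membranes, rinsed and quantified by phosphorimaging and ImageQuant. Intensities were normalized per position by the sum of the 18 (or 16, Ser/Thr-free library) randomized residues and multiplied by that number. Values give phosphorylation relative to the mean randomized residue.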

EPHA7, construct: aa579-end, human, sequence (Q15375 579-998, looked up): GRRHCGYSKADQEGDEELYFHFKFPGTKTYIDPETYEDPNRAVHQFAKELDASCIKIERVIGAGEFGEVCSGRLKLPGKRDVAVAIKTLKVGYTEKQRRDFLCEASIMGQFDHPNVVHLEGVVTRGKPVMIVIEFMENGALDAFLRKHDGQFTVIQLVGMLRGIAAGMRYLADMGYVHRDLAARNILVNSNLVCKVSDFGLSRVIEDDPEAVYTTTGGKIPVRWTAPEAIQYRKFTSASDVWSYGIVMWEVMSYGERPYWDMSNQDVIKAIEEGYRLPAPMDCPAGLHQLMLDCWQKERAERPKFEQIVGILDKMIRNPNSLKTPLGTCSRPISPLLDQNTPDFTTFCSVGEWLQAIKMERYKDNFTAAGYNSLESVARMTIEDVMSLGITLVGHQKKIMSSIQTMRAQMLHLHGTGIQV
PDHK3, construct: Full length, human, sequence (Q15120 whole entry, looked up): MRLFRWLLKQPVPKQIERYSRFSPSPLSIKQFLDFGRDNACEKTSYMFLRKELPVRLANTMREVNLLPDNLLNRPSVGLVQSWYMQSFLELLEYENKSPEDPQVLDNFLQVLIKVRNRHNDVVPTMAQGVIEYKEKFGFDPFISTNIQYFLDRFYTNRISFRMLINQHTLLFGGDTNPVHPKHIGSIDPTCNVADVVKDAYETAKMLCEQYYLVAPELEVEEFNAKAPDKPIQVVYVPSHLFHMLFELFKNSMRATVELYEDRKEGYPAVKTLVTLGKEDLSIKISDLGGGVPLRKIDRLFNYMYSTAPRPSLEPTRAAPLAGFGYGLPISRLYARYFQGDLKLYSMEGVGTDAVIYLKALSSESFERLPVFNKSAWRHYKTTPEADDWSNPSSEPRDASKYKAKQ
MKK7, construct: Full length, human, sequence (O14733 whole entry, looked up): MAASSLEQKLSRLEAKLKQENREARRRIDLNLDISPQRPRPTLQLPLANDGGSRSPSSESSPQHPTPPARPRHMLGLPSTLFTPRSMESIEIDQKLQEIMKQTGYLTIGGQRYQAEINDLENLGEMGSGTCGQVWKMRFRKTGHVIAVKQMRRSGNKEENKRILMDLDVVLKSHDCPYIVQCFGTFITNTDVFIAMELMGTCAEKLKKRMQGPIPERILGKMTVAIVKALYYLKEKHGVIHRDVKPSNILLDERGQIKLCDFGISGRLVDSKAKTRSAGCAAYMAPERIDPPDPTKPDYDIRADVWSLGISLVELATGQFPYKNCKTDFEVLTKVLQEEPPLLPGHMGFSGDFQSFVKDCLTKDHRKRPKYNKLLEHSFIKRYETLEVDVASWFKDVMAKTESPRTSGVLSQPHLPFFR

MKK7, construct: Full length, human (from UniProt O14733)
relative phosphorylation
Settings	at +1	at +2	at +3	at +4	at +5	at -1	at -2	at -3	at -4	at -5
A fixed	0.866	0.844	0.903	0.959	0.929	1.02	0.884	0.883	1.05	0.989
D fixed	0.796	1.11	1.02	1.07	0.952	0.915	0.883	0.947	0.993	1.02
E fixed	0.856	0.895	1.27	0.992	1.05	0.914	0.91	0.926	0.996	0.917
F fixed	1.11	1.39	1.21	1.13	1.14	0.857	1.28	1.1	1.08	1.14
G fixed	0.926	0.779	0.915	0.979	1.11	1.38	1.24	1.25	1.19	1.04
H fixed	1	1.09	1.02	1.02	1.02	0.958	1.06	1.05	0.968	1.09
I fixed	0.983	0.753	0.89	0.93	0.8	0.896	0.764	0.807	0.882	0.87
K fixed	0.896	1.09	0.896	0.989	1.08	1.04	1.17	1.14	1.06	1.16
L fixed	1.04	0.851	0.841	1.13	0.891	1.04	0.821	0.912	0.894	0.913
M fixed	1.38	0.857	1.05	1.03	0.977	0.926	0.855	0.828	0.881	0.89
N fixed	0.919	0.946	0.973	0.894	0.984	0.947	1.04	0.98	0.89	0.959
P fixed	0.955	0.819	0.941	1.09	1.04	1.07	1.04	1.06	1.11	0.99
Q fixed	0.873	0.929	1.09	0.881	0.991	0.951	0.891	1.07	0.974	0.952
R fixed	1	1.09	1.01	0.97	1.13	1.12	1.29	1.24	1.13	1.16
V fixed	0.918	0.844	0.822	0.828	0.73	0.85	0.803	0.794	0.844	0.802
W fixed	1.49	1.72	1.14	1.11	1.18	1.12	1.07	1.01	1.06	1.1
pThr fixed	0.894	1.05	0.876	1.08	1.01	1.09	0.859	1.08	1.05	1.11
pTyr fixed	0.963	1.06	1.03	1.01	1.09	1.57	1.11	1.82	1.05	1.11

PDHK3, construct: Full length, human (from UniProt Q15120)
relative phosphorylation
Settings	at +1	at +2	at +3	at +4	at +5	at -1	at -2	at -3	at -4	at -5
A fixed	0.864	0.935	0.907	1.15	0.809	0.955	1.04	0.965	1.15	1.1
D fixed	1.32	1.44	1.3	1.46	1.44	1.19	1.1	1.17	1.1	1.09
E fixed	1.1	1.02	1.32	1.46	1.23	0.907	1.02	0.781	0.943	0.994
F fixed	0.733	0.957	0.902	0.883	0.884	0.734	0.863	0.82	0.811	0.999
G fixed	1.14	0.947	1.11	1.06	1.09	1.03	1.07	1.24	1.33	1.12
H fixed	0.976	1.03	0.971	1.07	0.992	0.908	0.901	0.76	0.958	1.06
I fixed	0.74	0.721	0.875	0.87	0.766	0.781	0.793	0.67	0.826	0.874
K fixed	1.02	0.994	0.862	0.886	0.842	1.22	1.15	1.17	1	1.09
L fixed	0.876	0.878	0.869	1.03	0.886	0.906	1.12	1	0.9	0.95
M fixed	0.895	0.784	1.03	0.855	0.873	0.765	0.875	0.745	0.843	0.779
N fixed	1.18	1.01	0.955	0.877	0.944	1.04	0.912	0.933	0.986	0.897
P fixed	1.15	1.14	0.994	1.09	1.01	1.26	1.39	1.71	1.09	1.08
Q fixed	1.1	0.957	0.916	0.855	0.986	1.08	0.825	1.04	0.995	0.978
R fixed	1.09	0.889	0.906	0.714	0.926	1.09	1.02	1.01	1.18	0.997
V fixed	0.722	0.908	0.836	0.781	0.778	0.898	0.911	0.885	0.827	0.844
W fixed	1.1	1.39	1.26	0.97	1.54	1.24	1.03	1.09	1.07	1.15
pThr fixed	1.23	1.1	1.23	1.5	1.23	1.05	0.926	1.01	0.884	0.839
pTyr fixed	1.22	1.04	1.01	1.05	1.42	0.948	0.814	0.789	0.694	0.754

EPHA7, construct: aa579-end, human (from UniProt Q15375)
relative phosphorylation
Settings	at +1	at +2	at +3	at +4	at +5	at -1	at -2	at -3	at -4	at -5
A fixed	1.63	0.698	0.618	0.79	1.04	0.492	1.21	0.817	1.18	1.03
D fixed	0.804	1.37	0.44	0.936	0.981	2.01	1.07	1.12	1.17	1.05
E fixed	3	1.79	0.398	1.01	1.04	1.39	1.31	1.43	1.14	0.918
F fixed	0.661	1.31	1.7	1.08	1.13	0.92	0.747	1.48	1.07	1.03
G fixed	0.476	0.39	0.464	1.21	1.12	0.251	1.15	0.953	1.34	1.19
H fixed	0.495	0.916	0.855	1.29	0.953	0.625	0.779	1.06	0.852	0.96
I fixed	1.65	1.04	2.77	0.729	0.818	2.61	0.88	1.08	0.939	1.04
K fixed	0.271	0.522	0.329	0.822	0.809	0.3	0.926	0.591	0.875	0.993
L fixed	0.905	0.894	1.97	0.718	1.03	2.03	0.845	0.944	1.11	0.96
M fixed	1.41	0.935	1.15	1.03	0.988	0.872	0.663	0.913	0.883	0.921
N fixed	0.429	1.21	0.479	0.793	0.815	1.99	0.985	0.995	0.772	1.1
P fixed	0.204	0.609	0.93	1.4	1.64	0.346	1.51	1.15	1.33	1.11
Q fixed	1.08	0.742	0.692	0.778	0.782	0.439	1.09	0.706	1.04	0.94
R fixed	0.358	0.924	0.455	1.03	0.859	0.489	1.05	0.759	0.945	1.1
S fixed	0.725	0.769	0.537	0.853	0.994	0.457	1.26	0.877	0.784	0.834
T fixed	0.803	0.994	0.615	0.904	1.01	1.1	0.921	0.895	0.673	0.851
V fixed	2.03	1.04	2.05	0.733	0.797	1.1	0.936	0.876	0.822	0.831
W fixed	1.06	1.84	1.55	1.89	1.19	0.569	0.67	1.36	1.07	1.15
pThr fixed	1.8	2.11	0.552	0.851	0.651	2.07	0.877	0.772	0.877	0.834
pTyr fixed	1.98	6.7	0.866	1.14	0.865	1.94	0.896	1.02	1.08	1.12
